Results reported in patent US20090298769.

Key:
[1] = test system: control peptide DTANNPLF KEATSTFT-COOH
[2] = test system: control peptide KEATSTFTNIT FRGTCOOH
[3] = test system: β3 integrin cytoplasmic peptide specific for tyrosine-759 (KEATSTFTNITYpRGT-COOH)
[4] = test system: recombinant β3 integrin cytoplasmic tail-GST fusion protein
[5] = test system: β3 integrin cytoplasmic peptide specific for tyrosine-747 (DTANNPLYpKEATSTFT-COOH)

Substance | [γ-32P] ATP incorporation, in vitro kinase assay (control peptide, lower incorporation) [1] | [γ-32P] ATP incorporation, in vitro kinase assay (control peptide, lower incorporation) [2] | [γ-32P] ATP incorporation, in vitro kinase assay [3] | [γ-32P] ATP incorporation, in vitro kinase assay [4] | [γ-32P] ATP incorporation, in vitro kinase assay [5]
c-Src of HUVEC (endogenous) | a dramatic increase in [γ-^32P] ATP incorporation was observed as compared to control peptides devoid of tyrosine motifs | a dramatic increase in [γ-^32P] ATP incorporation was observed as compared to control peptides devoid of tyrosine motifs | In the presence of Tyr-747/Tyr-759 β3 integrin cytoplasmic peptide, a dramatic increase in [γ-^32P] ATP incorporation was observed as compared to control peptides devoid of tyrosine motifs | the immunoprecipitated c-Src can phosphorylate β3 integrin cytoplasmic domain | In the presence of Tyr-747/Tyr-759 β3 integrin cytoplasmic peptide, a dramatic increase in [γ-^32P] ATP incorporation was observed as compared to control peptides devoid of tyrosine motifs
purified, recombinant full-length c-Src |  |  |  | Recombinant purified c-Src also phosphorylated the β3 integrin whereas no phosphorylation was observed without the substrate | 
